# Measured values published in the supplement of paper PMC10724198.
# ± gives the standard deviation of the averaged measurements.
# Columns and labels:
# Saccharomyces cerevisiae [1] = assay: protein stability index of tFT-peptide fusion (C-terminal peptide) (PSI (0-1 scale)); higher = more stable (slower turnover); conditions: genetic background: wild type; temperature: 30 C
# Saccharomyces cerevisiae [2] = assay: as above
# Protocol: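 MPS profiling in S. cerevisiae of the tFT-X12 degron library: putative degron peptides plus stable controls, 12 aa, fused to the C-terminus of a sfGFP-mCherry timer. Cells are FACS-sorted into 8 mCherry/sfGFP bins and deep-sequenced. PSI runs from 0 (unstable) to 1 (stable). Backgrounds are wild type, das1Δ and doa10Δ at 30 °C, and wild type, das1Δ, cdc34-1 and cdc53-1 at 37 °C; 2-3 technical replicates each.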
# [3] = genetic background: cdc34-1, temperature: 37 C
# [4] = genetic background: cdc53-1, temperature: 37 C
# [5] = genetic background: das1 deletion, temperature: 30 C
# [6] = genetic background: das1 deletion, temperature: 37 C
# [7] = genetic background: doa10 deletion, temperature: 30 C
# [8] = genetic background: wild type, temperature: 30 C
# [9] = genetic background: wild type, temperature: 37 C
# 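Note: PSI is a weighted mean of sequencing reads over stability bins, variants kept only with over 10 reads, mCherry proximal and sfGFP distal, peptide attached via GGGS linker.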
Sequence,protein stability index (Saccharomyces cerevisiae [1]),protein stability index (Saccharomyces cerevisiae [2]; [3]),protein stability index (Saccharomyces cerevisiae [2]; [4]),protein stability index (Saccharomyces cerevisiae [2]; [5]),protein stability index (Saccharomyces cerevisiae [2]; [6]),protein stability index (Saccharomyces cerevisiae [2]; [7]),protein stability index (Saccharomyces cerevisiae [2]; [8]),protein stability index (Saccharomyces cerevisiae [2]; [9])
LVLSFVMLVSGH,0.289 ± 0.012,0.183 ± 0.014,0.313 ± 0.02,0.202 ± 0.013,0.384 ± 0.031,0.149 ± 0.0053,0.185 ± 0.024,0.343 ± 0.024
LVPVWVGLRVLF,0.421 ± 0.065,0.422 ± 0.021,0.429 ± 0.0053,0.354 ± 0.042,0.537 ± 0.015,0.347 ± 0.018,0.328 ± 0.022,0.506 ± 0.014
LVSCGNFLVFCF,0.324 ± 0.0072,0.299 ± 0.0056,0.311 ± 0.025,0.234 ± 0.021,0.387 ± 0.0079,0.211 ± 0.0058,0.234 ± 0.013,0.355 ± 0.0037
LVSSYVPFFFAL,0.342 ± 0.011,0.6057 ± 0.0033,0.717 ± 0.046,0.664 ± 0.0071,0.752 ± 0.011,0.25 ± 0.0073,0.29 ± 0.031,0.388 ± 0.015
LVSVLLLFWFLF,0.394 ± 0.069,0.4146 ± 0.00025,0.368 ± 0.014,0.358 ± 0.05,0.515 ± 0.037,0.344 ± 0.021,0.324 ± 0.013,0.475 ± 0.017
LVYCWFAEYFLV,0.169 ± 0.027,0.323 ± 0.043,0.561 ± 0.011,0.448 ± 0.027,0.586 ± 0.0069,0.0883 ± 0.016,0.106 ± 0.0044,0.0859 ± 0.017
LVYLVCAYSECE,0.332 ± 0.02,0.44 ± 0.015,0.463 ± 0.039,0.275 ± 0.039,0.477 ± 0.0062,0.242 ± 0.019,0.274 ± 0.0093,0.477 ± 0.0088
LWCLVWGGVWGV,0.447 ± 0.009,0.458 ± 0.014,0.5417 ± 0.005,0.353 ± 0.041,0.555 ± 0.0028,0.34 ± 0.0085,0.343 ± 0.039,0.508 ± 0.012
LWFVIYLLCFFV,0.348 ± 0.029,0.394 ± 0.015,0.395 ± 0.0045,0.328 ± 0.022,0.482 ± 0.024,0.285 ± 0.0031,0.291 ± 0.04,0.452 ± 0.0078
MFFSWVLSISLT,0.0454 ± 0.021,0.0242 ± 0.0074,0.058 ± 0.011,0.0335 ± 0.0093,0.0704 ± 0.0084,0.024 ± 0.0024,0.0234 ± 0.0076,0.0577 ± 0.011
MIVAIQLVDHPP,0.484 ± 0.044,0.459 ± 0.033,0.547 ± 0.0094,0.414 ± 0.013,0.522 ± 0.0075,0.409 ± 0.016,0.426 ± 0.028,0.509 ± 0.034
MLECIIHLTITR,0.483 ± 0.025,0.417 ± 0.072,0.577 ± 0.095,0.431 ± 0.038,0.507 ± 0.011,0.4306 ± 0.0039,0.444 ± 0.038,0.491 ± 0.019
MLSVVSFVSCTC,0.255 ± 0.012,0.181 ± 0.0023,0.17 ± 0.021,0.197 ± 0.017,0.29 ± 0.0063,0.1631 ± 0.0015,0.191 ± 0.027,0.237 ± 0.0063
MRVYLVLWADSC,0.247 ± 0.058,0.236 ± 0.034,0.345 ± 0.026,0.197 ± 0.015,0.361 ± 0.017,0.19 ± 0.015,0.184 ± 0.0039,0.337 ± 0.00094
MSIWKIFIWRLG,0.263 ± 0.019,0.524 ± 0.017,0.627 ± 0.037,0.494 ± 0.019,0.648 ± 0.028,0.132 ± 0.013,0.153 ± 0.024,0.2694 ± 0.00052
MVAHTVRVKCGI,0.547 ± 0.13,0.638 ± 0.049,0.66 ± 0.021,0.544 ± 0.031,0.674 ± 0.0096,0.557 ± 0.016,0.56 ± 0.056,0.6622 ± 0.0012
MVVILLVHWEYV,0.262 ± 0.017,0.15 ± 0.011,0.222 ± 0.032,0.172 ± 0.035,0.321 ± 0.017,0.17 ± 0.0031,0.171 ± 0.025,0.2768 ± 0.0012
MWFFFICYFLSV,0.263 ± 0.0072,0.277 ± 0.0059,0.361 ± 0.034,0.246 ± 0.049,0.411 ± 0.015,0.262 ± 0.021,0.249 ± 0.02,0.369 ± 0.0076
MYESIRILVNKV,0.457 ± 0.052,0.62 ± 0.015,0.707 ± 0.016,0.62 ± 0.022,0.697 ± 0.015,0.226 ± 0.0021,0.326 ± 0.038,0.491 ± 0.02
NFCVLLQFCVLV,0,0.437 ± 0.023,0.477 ± 0.023,0.36 ± 0.024,0.4832 ± 0.0002,0.364 ± 0.017,0.36 ± 0.02,0.448 ± 0.0074

Sequence,protein stability index (Saccharomyces cerevisiae [1]),protein stability index (Saccharomyces cerevisiae [2]; [3]),protein stability index (Saccharomyces cerevisiae [2]; [4]),protein stability index (Saccharomyces cerevisiae [2]; [5]),protein stability index (Saccharomyces cerevisiae [2]; [6]),protein stability index (Saccharomyces cerevisiae [2]; [7]),protein stability index (Saccharomyces cerevisiae [2]; [8]),protein stability index (Saccharomyces cerevisiae [2]; [9])
NFSLFVHFLGLC,0.445 ± 0.052,0.668 ± 0.047,0.703 ± 0.024,0.606 ± 0.021,0.687 ± 0.027,0.361 ± 0.0091,0.399 ± 0.023,0.608 ± 0.025
NNGLLLDILIKA,0.364 ± 0.059,0.388 ± 0.034,0.399 ± 0.073,0.28 ± 0.044,0.463 ± 0.021,0.248 ± 0.0094,0.295 ± 0.028,0.4517 ± 0.0037
NTNITHHSVKLR,0.727 ± 0.034,0.671 ± 0.017,0.7346 ± 0.0071,0.64 ± 0.026,0.712 ± 0.044,0.644 ± 0.024,0.662 ± 0.038,0.689 ± 0.036
NVWCWGASCFFC,0.447 ± 0.023,0.709 ± 0.048,0.797 ± 0.01,0.684 ± 0.0069,0.773 ± 0.0087,0.3367 ± 0.0033,0.36 ± 0.021,0.561 ± 0.025
PALLLFLRNLLL,0.447 ± 0.012,0.714 ± 0.022,0.7282 ± 0.0042,0.6419 ± 0.0029,0.757 ± 0.017,0.304 ± 0.018,0.352 ± 0.059,0.542 ± 0.009
PAPANRPTPRPV,0.7 ± 0.028,0.666 ± 0.041,0.7177 ± 0.006,0.661 ± 0.03,0.722 ± 0.011,0.652 ± 0.014,0.6256 ± 0.006,0.7517 ± 0.0059
PCVCFIILGMLS,0.449 ± 0.012,0.42 ± 0.013,0.515 ± 0.012,0.322 ± 0.035,0.563 ± 0.01,0.285 ± 0.013,0.308 ± 0.016,0.52 ± 0.021
PFARIIDILLVI,0.41 ± 0.026,0.486 ± 0.022,0.5346 ± 0.0045,0.404 ± 0.042,0.5395 ± 0.00065,0.298 ± 0.0017,0.315 ± 0.022,0.495 ± 0.061
PFIPLLLAPALA,0.441 ± 0.1,0.4032 ± 0.0011,0.409 ± 0.0068,0.297 ± 0.036,0.458 ± 0.0089,0.275 ± 0.0074,0.307 ± 0.023,0.4205 ± 0.00058
PFPRCRLIFFFM,0.171 ± 0.045,0.5172 ± 0.0045,0.7266 ± 0.0031,0.549 ± 0.025,0.742 ± 0.043,0.106 ± 0.0088,0.115 ± 0.017,0.139 ± 0.019
PFRSAYYLLFLL,0.205 ± 0.035,0.496 ± 0.048,0.6347 ± 0.0016,0.54 ± 0.013,0.6738 ± 0.00079,0.122 ± 0.015,0.118 ± 0.0092,0.161 ± 0.026
PFVATRVSCFLT,0.414 ± 0.015,0.542 ± 0.013,0.704 ± 0.024,0.626 ± 0.087,0.685 ± 0.0089,0.339 ± 0.004,0.39 ± 0.05,0.4393 ± 0.00057
PHFDLLLCLSLN,0.366 ± 0.0045,0.625 ± 0.026,0.753 ± 0.057,0.676 ± 0.049,0.718 ± 0.018,0.248 ± 0.032,0.257 ± 0.033,0.521 ± 0.016
PHLDLYRLSALI,0.47 ± 0.0056,0.705 ± 0.01,0.751 ± 0.016,0.668 ± 0.032,0.79 ± 0.012,0.329 ± 0.031,0.366 ± 0.021,0.57 ± 0.021
PHPPRPPCPPIL,0.74 ± 0.019,0.673 ± 0.041,0.736 ± 0.015,0.674 ± 0.0068,0.721 ± 0.0074,0.699 ± 0.037,0.678 ± 0.015,0.699 ± 0.0093
PHVSALSRDPES,0.716 ± 0.018,0.698 ± 0.038,0.728 ± 0.0092,0.649 ± 0.021,0.7247 ± 0.0027,0.65 ± 0.025,0.662 ± 0.017,0.701 ± 0.016
PISNMSIILLFL,0.48 ± 0.04,0.495 ± 0.072,0.595 ± 0.043,0.439 ± 0.028,0.593 ± 0.016,0.378 ± 0.018,0.391 ± 0.015,0.556 ± 0.027
PLFFGVQAFGGV,0.7335 ± 0.0045,0.727 ± 0.026,0.79052 ± 0.0004,0.664 ± 0.029,0.7644 ± 0.0042,0.669 ± 0.033,0.679 ± 0.014,0.7622 ± 0.0021
PLPCFVLRLPVF,0.402 ± 0.02,0.39 ± 0.037,0.429 ± 0.033,0.298 ± 0.031,0.465 ± 0.0064,0.267 ± 0.011,0.304 ± 0.024,0.4379 ± 0.0024
